{"source": "patent US20240043527A1", "about": "(BioNTech SE, priority 2020, published 2024)", "key": {"[1]": {"assay": "Repetitive dose PK study in NHP (ELISA)", "assay_type": "in vivo, Cynomolgus monkey", "protocol": "NHP received IV injections of 0.1, 0.4 or 1.6 mg/kg RB_RMAB01 at test days 1, 8 and […] was sampled 6, 24, 48, 72, 96 and 168 hours post 1st and 3rd dosing and 48, 72 and 168 hours post 2nd dosing as well as 264, 336 and 504 hours post 3rd dosing. RiboMab01 concentrations in plasma measured via ELISA are shown. Error bars are standard errors of the mean (n=3).\nFIG. 14 is a graph showing dose-exposure correlation of RB_RMAB01 in cynomolgus monkey at tmax. Cynomolgus monkeys (n=3) received IV injections of 0.1, 0.4 or 1.6 mg/kg RB_RMAB01. Dose-dependent RiboMab01 concentrations (mean, n=3) in plasma measured via ELISA at Cmax are depicted. A green line indicates a dose that can be administered to a human subject and its corresponding anticipated serum concentration.\nTreatment groups received three IV bolus injections of either 0.1 mg/kg, 0.4 mg/kg or 1.6 mg/kg at weekly intervals. As controls, saline or empty LNPs were administered likewise. Serum was sampled 6, 24, 48, 72, 96 and 168 hours post 1st and 3rd dosing and 48, 72 and 168 hours post 2nd dosing as well as 264, 336 and 504 hours post 3rd dosing."}, "[2]": {"assay": "Repetitive dose PK study in mice (ELISA)", "assay_type": "in vivo, Balb/cJRj mice", "settings": "five weekly IV doses", "protocol": "Balb/cJRj mice received IV injections of 1 μg (˜0.04 mg/kg), 3 μg (˜0.10 mg/kg), 10 μg (˜0.40 mg/kg) or 30 μg (˜1.20 mg/kg) RB_RMAB01 and 80 μg (˜3.20 mg/kg) IMAB362 reference protein at test days 1, 8, 15, 21 and 29. Plasma was sampled 24 hours pre- and 24 hours post-dosing. RiboMab01 concentrations in plasma measured via ELISA are shown. Dotted lines indicate injections. Error bars are standard errors of the mean (n=3)."}, "[3]": {"system": "CLDN-18.2+ NCI-N87 xenograft tumors", "assay": "CLDN-18.2+ human gastric carcinoma xenograft tumor model", "assay_type": "in vivo, mice", "settings": "IV injections of 1-30 μg RB_RMAB01 on test days 15, 22, 29, 36, 43 and 50", "protocol": "Median tumor growth of treatment and control groups is shown. Dotted lines indicate injections. Significance was calculated by Two-way ANOVA. Ns indicates not significant."}, "CLDN-18.2": {"target": "T1, CLDN-18.2 (Homo sapiens, UniProt P56856)", "T1 construct": "expressed in transfected cells; host or cells: HEK293", "assay": "Flow cytometric binding assay on CLDN-18.2+ HEK293 transfectants", "settings": "CHO-K1 supernatant on CLDN-18.2+ HEK293 transfectants"}, "[4]": {"assay": "Single dose PK study in rats (ELISA)", "assay_type": "in vivo, RjHan:Wister rats", "settings": "single IV dose, post administration", "protocol": "RjHan:Wister rats received a single IV injection of 0.04, 0.10, 0.40 or 1.20 mg/kg of RB_RMAB01 and 3.60 mg/kg of IMAB362 reference protein. Plasma was sampled 2, 6, 8, 10, 22, 24, 27, 30, 48, 72, 96, 168, 216, 264 and 336 hours post administration. RiboMab01 concentrations in plasma measured via ELISA are shown. Error bars are standard errors of the mean (n=3)."}, "CHO-K1 cells": {"system": "CHO-K1 cells", "assay": "Expression and assembly of RiboMab after lipofection of CHO-K1 cells (ELISA)", "assay_type": "cell-based, Chinese hamster", "settings": "48 hours post lipofection"}, "[5]": {"settings": "cynomolgus monkey, in vivo", "protocol": "Furthermore, immunotoxicity in vivo was assessed as part of the repeated-dose toxicity study in mice and a pharmacokinetic study in cynomolgus monkey. All studies were designed in accordance with the ICH S8 guideline (Immunotoxicity studies for human pharmaceuticals)."}, "[6]": {"system": "primary human hepatocytes", "assay": "Expression and assembly of RiboMab after lipofection of primary human hepatocytes (ELISA, Western Blot)", "assay_type": "cell-based", "settings": "48 hours post lipofection", "protocol": "(Left) ELISA analyses of RiboMab01 concentrations 48 hours post transfection. (Right) Western Blot analysis of cell culture supernatant from indicated lipofections. Recombinant purified IMAB362 served as reference for Western Blot analysis. Analysis was performed under non-reducing conditions and with HRP-conjugated anti-human antibodies. A mixture of Fcγ-fragment specific and anti-kappa light chain specific antibodies was used for detection of full length IgG, free heavy (HC) and free light chains (LC). Supernatant of untransfected primary human hepatocytes served as mock control. […] RiboMab01 concentration determined via ELISA 48 hours post transfection are shown. Error bars are standard errors of the mean (n=3).\nAssembly of full IgG after RNA transfection of hepatocytes."}, "MDA-MB-231 cells": {"system": "MDA-MB-231 cells", "assay": "Ex vivo ADCC assay with plasma of dosed mice, target-negative control cells", "assay_type": "cell-based, human", "settings": "mouse plasma", "protocol": "Plasma of mice dosed with five repetitive injections of either 1 μg (˜0.04 mg/kg), 3 μg (˜0.10 mg/kg), 10 μg (˜0.40 mg/kg) and 30 μg (˜1.20 mg/kg) RB_RMAB01 or 80 μg (˜3.20 mg/kg) of IMAB362 was sampled 24 hours post 5th injection and directed to luciferase-based ex vivo ADCC assays. Plasma of untreated mice spiked with IMAB362 served as assay reference. […] (Panel A) RiboMab01 mediated ADCC of NUG-C4 cells after 48 hours incubation with 1% of plasma is shown. […] Error bars are standard errors of the mean (n=3).\nPlasma of untreated mice spiked with IMAB362 served as assay reference."}, "[7]": {"assay": "Single dose PK study in mice (ELISA)", "assay_type": "in vivo, Balb/cJRj mice", "settings": "single IV dose", "protocol": "Balb/cJRj mice received a single IV injection of 1 μg (0.040 mg/kg), 3 μg (˜0.10 mg/kg), 10 μg (˜0.40 mg/kg) or 30 μg (˜1.20 mg/kg) RB_RMAB01 drug product and […] IMAB362 reference protein. Plasma was sampled 6, 24, 96, 168, 264, 336 and 504 hours post administration. RiboMab01 concentrations in plasma measured via ELISA are shown. Error bars are standard errors of the mean (n=3)."}}}
{"substance": "CLDN-18.2-targeting RiboMab: CLDN-18.2-targeting IgG antibody (IMAB362 delivered as ribonucleic acid) expressed from mRNAs encoding heavy and light chain", "values": [{"measurement": "RiboMab serum concentration, highest determined", "setting": "[1]; NHP No. 14, 1.6 mg/kg, 48 hours after the 3rd dosing", "result": 232, "unit": "µg/mL"}, {"measurement": "Cmax compared with IMAB362", "setting": "[1]; between 48-72 hours post administration", "result": "notably lower Cmax than IMAB362"}, {"measurement": "tmax", "setting": "[1]; dose-exposure correlation in cynomolgus monkey, FIG. 14", "result": 48, "unit": "h"}, {"measurement": "peak serum concentration of RiboMab", "setting": "[1]; highest dose 1.6 mg/kg, 48-72 hours post 3rd administration", "result": 231.7, "unit": "µg/mL"}, {"measurement": "time RiboMab detectable (termination of the study)", "setting": "[1]; post 1st dosing", "result": 840, "unit": "h"}, {"measurement": "expression on weekly administration", "setting": "[1]; three weekly IV doses", "result": "sustainable"}, {"measurement": "peak plasma concentration of RiboMab", "setting": "[2]; 30 μg, 24 hours post-dosing", "result": "≤ 1000", "unit": "µg/mL"}, {"measurement": "RiboMab levels on weekly administration", "setting": "[2]", "result": "Sustained CLDN-18.2-targeting RiboMab"}, {"measurement": "tumor growth inhibition in vivo (FIG. 6)", "setting": "[3]", "result": "tumor growth inhibition"}, {"measurement": "binding to CLDN-18.2 polypeptide", "setting": "CLDN-18.2", "result": "bound preferentially"}, {"measurement": "binding to CLDN-18.2 polypeptide", "setting": "CLDN-18.2; listed as RiboMab01", "result": "binds target specific to CLDN-18.2"}, {"measurement": "time of peak concentration", "setting": "[4]", "result": 24, "unit": "h"}, {"measurement": "expression and assembly of full IgG in cell supernatant", "setting": "CHO-K1 cells", "result": "Fully assembled"}, {"measurement": "expression and assembly of full IgG in cell supernatant", "setting": "CHO-K1 cells; listed as RiboMab01", "result": "expressed"}, {"measurement": "systemic side effects", "setting": "[5]", "result": "no systemic side effects such as diarrhea were observed"}, {"measurement": "expression and assembly of full IgG in cell supernatant", "setting": "[6]", "result": "Fully assembled"}, {"measurement": "expression and assembly of full IgG in cell supernatant", "setting": "[6]; listed as RiboMab01", "result": "expressed"}, {"measurement": "unspecific lysis on target-negative cells", "setting": "MDA-MB-231 cells", "result": "No unspecific lysis"}, {"measurement": "time RiboMab detectable post administration", "setting": "[7]", "result": "up to 504 hours"}, {"measurement": "time RiboMab detectable post administration", "setting": "[7]; listed as CLDN-18.2-targeting antibody agent", "result": "up to 504 hours post dosing."}]}
